According to US20210122824A1 (ADAGENE, published 2021):

Assays:
[1] = molecular target: T1, human PD-L1-Fc fusion protein (Sino Biological Cat #10084-H02H) (human, UniProt Q9NZQ7 19-239); test: SPR (Biacore T200), human PD-L1-Fc immobilized, IgG in solution
T1 construct: bought; not shown: Fc part of the bought fusion

[2] = molecular target: T2, human PD-L1 expressed on cell surface (human, UniProt Q9NZQ7 19-290); test: cell ELISA on HCC827 cells fixed with 4% paraformaldehyde, absorbance at 450 nm
T2 construct: whole, on cells; also called full-length human PD-L1; cell surface PD-L1
T2 sequence (Q9NZQ7 19-290): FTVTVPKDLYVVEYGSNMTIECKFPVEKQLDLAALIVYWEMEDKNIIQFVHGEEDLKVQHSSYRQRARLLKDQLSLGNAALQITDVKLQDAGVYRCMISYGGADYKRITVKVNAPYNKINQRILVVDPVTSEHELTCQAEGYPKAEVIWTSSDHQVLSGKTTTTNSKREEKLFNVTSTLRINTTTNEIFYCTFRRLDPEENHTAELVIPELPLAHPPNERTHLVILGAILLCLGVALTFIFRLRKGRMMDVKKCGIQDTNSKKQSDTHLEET

[3] = molecular target: T2, human PD-L1 expressed on cell surface; test: flow cytometry on stable cell line 293T-002 expressing PD-L1; 293T-002 cells expressing PD-L1, flow cytometry
[4] = molecular target: T3, human CTLA4 expressed on HEK293F cells (human, UniProt P16410 36-223); test: flow cytometry, HEK293F cells transiently expressing the target, 100 nM antibody, PE anti-human Fc; Mean (PE-A against FITC-A, GFP surrogate)
T3 construct: whole, on cells
T3 sequence (P16410 36-223): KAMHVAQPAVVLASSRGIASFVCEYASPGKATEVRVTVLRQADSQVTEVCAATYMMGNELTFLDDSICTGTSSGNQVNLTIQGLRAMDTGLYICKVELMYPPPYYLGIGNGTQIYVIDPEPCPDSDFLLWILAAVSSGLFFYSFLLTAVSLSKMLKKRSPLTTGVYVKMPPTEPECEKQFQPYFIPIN

[5] = molecular target: T4, human LAG3 expressed on HEK293F cells (human, UniProt P18627 23-525); test: as above
T4 construct: whole, on cells
T4 sequence (looked up): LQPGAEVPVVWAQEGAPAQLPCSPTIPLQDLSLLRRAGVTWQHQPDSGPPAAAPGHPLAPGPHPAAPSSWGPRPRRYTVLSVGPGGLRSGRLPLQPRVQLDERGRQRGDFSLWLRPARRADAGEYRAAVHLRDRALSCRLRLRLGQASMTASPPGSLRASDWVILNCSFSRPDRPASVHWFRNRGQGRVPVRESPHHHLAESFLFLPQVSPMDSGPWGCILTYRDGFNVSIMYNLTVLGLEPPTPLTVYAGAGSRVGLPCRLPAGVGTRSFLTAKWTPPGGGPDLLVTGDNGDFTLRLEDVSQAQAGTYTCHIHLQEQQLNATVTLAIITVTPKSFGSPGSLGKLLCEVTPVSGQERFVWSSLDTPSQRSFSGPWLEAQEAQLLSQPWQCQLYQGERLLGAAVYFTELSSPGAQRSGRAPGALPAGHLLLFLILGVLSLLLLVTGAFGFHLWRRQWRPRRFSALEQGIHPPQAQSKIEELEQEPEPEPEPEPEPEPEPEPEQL

[6] = molecular target: T5, human TIM3 expressed on HEK293F cells (human, UniProt Q8TDQ0 22-301); test: as above
T5 construct: whole, on cells

[7] = molecular target: T2, human PD-L1 expressed on cell surface; test: blocking by flow cytometry, HEK293F cells expressing full-length human PD-L1, 100 nM antibody then 100 nM biotinylated PD1-His (blocked ligand), Alexa fluor 633 streptavidin; isotype control panel Q2 35.1%

T1 sequence (Q9NZQ7 19-239 limits assumed): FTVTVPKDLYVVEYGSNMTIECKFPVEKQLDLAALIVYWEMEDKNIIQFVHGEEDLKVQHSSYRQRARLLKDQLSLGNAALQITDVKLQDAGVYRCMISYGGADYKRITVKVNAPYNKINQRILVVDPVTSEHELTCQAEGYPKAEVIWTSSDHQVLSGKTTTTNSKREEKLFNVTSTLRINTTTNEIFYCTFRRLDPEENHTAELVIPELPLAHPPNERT

B1: TY21421 (antibody, V domains shown)
VH: EVQLVESGGGLVQPGGSLRLSCAASGYSISSGYYWGWIRQAPGKGLEWIGIIYPSGGGTNYAQKFQGRVTISRDNSKNTLYLQLNSLRAEDTAVYYCARGGGLGFDYWGQGTLVTVSS
VL: DIQLTQSPSSLSASVGDRVTITCRASQSIPSFLNWYQQKPGKAPKLLIYAASSLQSGVPSRFSGSGSGTDFTLTISSLQPEDFATYYCQHYISWPRQFTFGQGTKVEIKR
notes: IgG1 (wild type) made from Fab B15041, from HEK293F cells
[1]
  Kd: < 0.01 nM
[2]
  EC50: 0.3 nM
[3]
  EC50: 1.08 nM
[4]
  Mean: 4900
[5]
  Mean: 5850
[6]
  Mean: 8100
[7]
  Q2 (percent of cells positive for GFP and for the APC signal of PD1-His, antibody present): 0.27%
